Measurements as given in publication PMC6433120 (Nature, 2018).

Biological target: T1, CC-SAM domain of murine KSR1 (mouse, UniProt Q61097 25-170)
T1 sequence (looked up): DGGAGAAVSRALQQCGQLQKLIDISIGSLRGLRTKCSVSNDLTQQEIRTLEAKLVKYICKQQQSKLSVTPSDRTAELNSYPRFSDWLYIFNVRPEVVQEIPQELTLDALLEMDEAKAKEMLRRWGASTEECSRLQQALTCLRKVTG
Test: NMR titration

binding result: binds
B1: BRS domain of human BRAF (domain or fragment, UniProt P15056 36-114, looked up)
chain: SSAADPAIPEEVWNIKQMIKLTQEHIEALLDKFGGEHNPPSIYLEAYEEYTSKLDALQQREQQLLESLGNGTDFSVSSS
